Laboratory results taken from patent publication US20240026407A1, “MODIFICATION OF SAPONINS” (GLAXOSMITHKLINE BIOLOGICALS SA, priority 2020, published 2024).

What was measured:
Format in all cases: biochemical, Quillaja saponaria
[1] = Experiment 6-1: screening of rhamnosidases for derhamnosylation of saponins in treated bark extract (2%), QS-17 2296 to QS-18 2150 (PAR %); conditions: TBE 2%, pH 7.5, 30 degC, 18 h; TIC peak area ratio percent of rhamnosylated starting saponin to derhamnosylated product, LCMS/MS; negative controls 4.876, 5.225
[2] = Experiment 6-1: screening of rhamnosidases for derhamnosylation of saponins in treated bark extract (2%), desglucosyl-QS-17 2134 to QS-21 1988 (PAR %); conditions: TBE 2%, pH 7.5, 30 degC, 18 h; TIC peak area ratio percent, LCMS/MS; negative controls 2.719, 2.158
[3] = Experiment 6-1: screening of rhamnosidases for derhamnosylation of saponins in treated bark extract (2%), QS-17 2310 to QS-18 2164 (PAR %); conditions: TBE 2%, pH 7.5, 30 degC, 18 h; TIC peak area ratio percent, LCMS/MS; negative controls 3.061, 2.429
[4] = Experiment 6-1: specificity of rhamnosidases towards other rhamnose residues (C3 saccharide rhamnose, C28 saccharide rhamnose); conditions: TBE 2%, pH 7.5, 30 degC, 18 h; LCMS/MS; negative controls 0.18, 0.17

Molecule	QS-17 (PAR %) [1] [%]	Peak75 (PAR %) [2] [%]	Peak57 (PAR %) [3] [%]	ratio PP/QS-21 [4]
1030 (protein, listed as Lactobacillus crispatus) MKLVRIEVNHMETPIGFNLDNHLHLVGFLDGPVTSKLQRKLIIKAHDKEIVTFDWENADNLIFDFPINLTARTRYEVEMSVKNDREMSTATTYFETGQIDETLKGKWIGTEHKDLHSIILYKKFTTKDVKKARLYISGLGLFEAYLDGNKIGNEFLTPGFTDYNYDLQIESYDLTTELLKSGEHTLAIMLGDGWYRGKLGLKVHGGQPNNYGDQLMAIADLRINDDQQIIVTDKSWQVTTSPITHSGIYYGEDLDDNRQLNELANAIELTSPTKHLVDRQSLPIQRHEQFSVKEIIKTPSGATVLDFGQNMAGWLEFKNTIPKGEKVSIEFGEIMLDGEFYRDNLRSARAQFTYVSDGKEKWVRPHFTYFGFRYVKLNDFEGEIDPNNFRAVALYSNMIETGEIITNNSDVNRLFENVKWGQKSNFIDIPTDCPQRDERLGWTGDAAIFSKTASYNMDTYQFLKKYAYDIAVEQSKNNGFVPLYVPAVDTKDGGKAVWSDAATIIPWIAYKRTGDLAILRQNIGAMMSWVDWIHDRAVSHGQEYLWLGDDQLGDWLALDTEDIMKLKGKTPDDLIASAYYYYSAKLVSQSAETLNMKHEKQYYGQLAKLIKHAFINHFFTKDGLSIADTQTGLALCLSFKLYPANAKDNLINKLVEKVEVNQNHLNTGFVGTPLLLPALTDNGQQDLALRLFLNTDFPSWLFEVKNGATTIWERWNSVDSEGHIAQNGMNSLNHYSSGAVMEWAYEDLLGLKQNGNDAVFKPMLTAKLNQISGQIALPTGIVKVAWHIKSSKLIHLEMDIPYGSHLKLILPKHEQDIPTIFKSGHYELDVEVINPIVEAFDVHTPLAEYRNQTSLTKKLSELVPFWGFLAMPGNMDHFAKYSLLQLSREMRGIGFKPFTQEDIEKINQLFKEYHFKGAEK	5.315	2.127	3.621	0.17
1051 (protein, Subdoligranulum variabile) MDGGPLFLSWQCTGGLRQTAYEIHLTADDALVWESGKVATQSMHADAPAVEGARVRGSWKVRLWDENNCPGPWSGARFETGLSTGEWQGLWVAPETAPLDIPGDDAINAFARPNWERKQAEKEAAGKGAAEPYQPHRPASYLRKTFTAPSGRGRLYITAKGLYVAWLNGVRVGDMVLAPGSFTADKHLGAQTYDVTALLREGENELLIALGDGWYRSTSGVDGDRNLFGDTLGVLFQLEVDGKVVCVSDDTMQATQQGPIRQNDLQQGEVYDARLEGLLSGWHEVQTYRDALPVTGMNTVPIREREAFPGRLFTAPNGETVLDFGQNIAGYVEMTLTAHAGQKVLLTCGETLDENGNFTQENFQDRSRHNEGGTAQMLELICKEGVNHWKPSFTIMGFQYAKVETDADLTGAVFTAHAVYSDMAVTGSFTCGNKAVNRLVANSIWSQKGNFCDIPTDCPTRERAGWTGDMGVFIETGLTLMDCYPVVAKWLKECRLNQYPDGRMANIAPPNSRPGYMTPMLCMSAGWGDAAILVPYALYKRTGDRRILADNYEMMQRWYAFLLGRAQQTTEEQQSGEYAKYTVLNGLDYGEWCEPGVTPMQAMANPRKSVGTAYLAYSGRLLAEIAAVLGRQEEADAYRATADKAVKAYRAAFTEDGVIHSDRQCEYVRAIAFALLGEEESRAAATTLNQMVVDNGCHLNTGFLSTPFLCGVLAQYGYIDTAYRLLLQPEAPGWLYEVNKGANTVWETWTGIDAEGKPHESLNHYSYGAICGWLFGGVCGIHFTDGQLTIAPTPHKALGYAKAVYDSPAGRIESGWRYEGDTVTYEFTIPTNITAHIHLPDGRTRMLSAGTHRL	5.289	2.426	2.918	0.16
1026 (protein, listed as Pseudarthrobacter chlorophenolicus) MTAPARLRAEHLREAMGLAVREPRLSWTPPAATAGQTAYRIMADNGWDTGRIASAESGGIAYGGPALDSRSRFDWRVRTWNVDSDGTETASDWSESMPVELGLLHPSDWTGQWISPGEEAVSPPGERPGYALTRTFTLPAAPDKARAYATAHGIYELFINGQRVGDQQLTPGSTSYNTTLQVQAYDVTALLTAGLNTIRAVLTDGWYRGTFGYTRDADMYGTHTAFLAQLELESEAGRQVIGTDPSWLVSATEVISADLMAGQRVDFRAYDTGSAPSAGKAPGVRAAVVRPGSFGALTGPLAPPTRVTEELAPVSITRLRNGHQVVDFGQNIHGWVRLAALGGPGETVTLEYGEALGRDGDVTRDHLRPHDFRVPGAFLDAGQVDTVTASGAPGEVFEPRHTSHGFQFVSVRGLATDLRPRDVTACLVRTDLERIGTFHCSDERLNKLHGIVEWSFLGNSCEVPTDCPQREKAGWTGDWQLFVPTAAYLYDVTGFTRKWLRDVRADQWDNGVIANISPSPGPAITSAEFMGFTNGSSGWGDAIVMVPWEAYLATGDASILAENWDAMNRWLGFVRTTAETRRHAARATQAPVPADHEKYLWDTGFHFGEWMEPDGPGPDLFASRTADNGIVATAYYRHTTDLMARIARALGLAAEAADLARLSDAIRDAWATEYLDESGRVTVASQANCVRALAFQLAGTEHRAAVTTQLVELIRDAGTHLGTGFLATPYLLPVLADHGHLGLAYELLMQDSEPSWLAMVDRGATTVWELWNGLDAGGAPHQSLNHYSKGAVVSFLHRYTAGLRQAPGSAGWNRIIIEPRPGAGLTSAATSHQGPHGPITVAWTLSTDALGPDEMTADGVLTLTADIPSGTTAEILLPGQPAAVVGPGHHVFSAATGGDTAHPELMRSTL	5.271	2.501	2.755	0.17
1013 (protein, listed as Chloroflexus aurantiacus) MSYEQLSTSQSQVSRLIVRVEHYQSTLGIGNPCPRLSWIIETNATNWLQTAYEIECYTKDGRVRGRTGWIHSPESVLVPWPFEPLTSREQVLVRVRVRDNKGDISPWSEMLPIEAGLLKVGDWSARFITPDWDDDILKPQPCPMLRHEFRVDNDVIQARLYITSLGVYEAQINGVVVGDQVLAPGWTVYDRRLRYQTFDVTMHLREGINAIGVILGDGWFRGRLGFGGGRRNIYGNRLAVLAQLEITYRDGSTQQVCTDQTWRSTTGPILASDIYDGEIYDARLELPNWSKPGFADHQWSGVRLLEWDFSTLVAPISPPIRRIEMVLPVAIFSSPSGRTIVDFGQNLVGRVRLTVSGPPGQMITVRHAEVLEGGELSTRPLRFAAATDRYILRGDGTEVWEPRFTFHGFRYAEIDGWPGELRTTDIVAVVIHSDMERIGWFTCSDQLLNRFHENVVWSMRGNFLDVPTDCPQRDERLGWTGDIQVFAPTAVFLYDVAGLLQSWLIDLAIEQEKLGGAVPHVVPNVLGPSAAGAAAWGDAATVVPWVLFQRYGDKRVLETQYKSMRSWVDYIATKAGHTYLWDRGFQFGDWLDPTAPPDKPGQARTDKAIVASAYFIFSATLVAKAAHVLGYDADADFYADLAHKARFAFAKEYITPAGRLMCDTETAYALALVFDLFPTDTQRRYAGERLAALVRDSGYHIRTGFVGTPLICDALCSVGHCRVAYRLLMQRECPSWLYPVTMGATTIWERWDSMLPDGSINPGEMTSFNHYALGAVADWMHRTIGGLIPVEPGYRRIEFRPQPGGEIVYARVSHRTPYGLAECFWRIEEGVFYLRVVVPPNTTAQVFLPGRDDQPLDVGSGIWQWSIPCQDTATRGSYTVDDLVDEIIDDEVAREAVNQVLSQVDAWRLFGNLLLNERSASLREAIQALPNSEIVIERLNALLTRIPKKDGI	5.272	2.388	2.576	0.17
1014 (protein, listed as Thermoclostridium stercorarium) MMRVYNLKTNRIKNPMGFVINKPKLSWLVESDTAKHQVAAQVEISADINFENIIFDSGKRTDIDSISYSPQVELKPRTRYYWRVRVWGDDGSEAVSEAAWFETSKMDEPWKAKWITPDFDPSVHPVVFTDFSIERDVADARAYVCGLGLYEMSVNGEKTGDEYLAPGLVAYDKWIPYQTYDITSQLKKGINTAEFLLGNGWYKGRYGLNRKQPFRYGNEFALICEIHITYQDGTADVIYTDTSWKARKSKVIDSGIYDGEIYDDTFCDDAVYPVRIADLDVNKLEPRRSPGIKIKERIKPAEIIRTPEGETVIDMGQNMVGWLEFTNRAPKGAEIMLQFGEVLQDGNFYRDNLRTAKCEFHYISDGKVKKVRPHFTFYGFRYVKLTKWEGEVNPEDFTGLVLYSDLERTGNITTDNSLVNRLFLNALWSQKGNFLDVPTDCPQRDERMGWTGDAQVFSGAAAFNMDVFAFFGKYLYDLKQEQKARGGNVPVVVPAHDVKQNGACGWGDAAVIIPWNMYLHYGDVSILEQQYKSMKGWVDYIKSKDDAAGGRRLWLNDFHYGDCVSLDVEDPFNRFGGTEHAYLASAFYSYSAGIVSKAAKILNKKEDAEYYRKLSEEVKNAIRKEYFTPTGRLAVNTQTAYVIALYMDLVPDEWKERVAFELRKKLKETKYHLRTGFLGTPYLCRVLSEYGSNDIAYRLLTNTDYPGWLYPVTMGATTIWERWNSMLPDGKVSDTGMNSFNHYSYGSIVEWIYRNAAGIQPVEDAPGFRRFRLKPQPHYLLKSLDAEFLSPAEKIISRWNINENGSVSFYFRIPFNTTAELVLPDTEVQDWKEFMSLNVVNILILTCLKDLTRKCTEQILQCGKFMKMRGQKKL	5.309	2.741	3.359	0.18
